B1: DVD521 (bispecific antibody, IgG1)
VH: EVQLQQSGPELEKPGASVKISCKASGYSFTGYNMNWVKQSNGKSLEWIGNIDPYFGGTNYNQKFKGKATLTVDKSSSTAYMQLKSLTSEDSAVYYCARNYDYDGGCFDYWGQGTTLTVSSASTKGPSVFPLAPEVQLVESGGGLVQPGGSLRLSCAASGFTINASWIHWVRQAPGKGLEWVGAIYPYSGYTNYADSVKGRFTISADTSKNTAYLQMNSLRAEDTAVYYCARWGHSTSPWAMDYWGQGTLVTVSS
VL: QAVVTQESALTTSPGETVTLTCRSSTGAVTTSNYANWVQEKPDHLFTGLIGGTNNRAPGVPARFSGSLIGDKAALTITGAQTEDEAIYFCALWYSNHWVFGGGTKLTVLGQPKAAPSVTLFPPDIQMTQSPSSLSASVGDRVTITCRASQVIRRSLAWYQQKPGKAPKLLIYAASNLASGVPSRFSGSGSGTDFTLTISSLQPEDFATYYCQQSNTSPLTFGQGTKVEIKR
notes: DVD-Ig, outer AB073 / inner AB071; HC linker long, LC linker long; also called DVD521H; DVD521L
B2: DVD522 (bispecific antibody, IgG1)
VH: EVQLVESGGGLVQPGGSLRLSCAASGFTINASWIHWVRQAPGKGLEWVGAIYPYSGYTNYADSVKGRFTISADTSKNTAYLQMNSLRAEDTAVYYCARWGHSTSPWAMDYWGQGTLVTVSSASTKGPSVFPLAPEVQLQQSGPELEKPGASVKISCKASGYSFTGYNMNWVKQSNGKSLEWIGNIDPYFGGTNYNQKFKGKATLTVDKSSSTAYMQLKSLTSEDSAVYYCARNYDYDGGCFDYWGQGTTLTVSS
VL: DIQMTQSPSSLSASVGDRVTITCRASQVIRRSLAWYQQKPGKAPKLLIYAASNLASGVPSRFSGSGSGTDFTLTISSLQPEDFATYYCQQSNTSPLTFGQGTKVEIKRTVAAPSVFIFPPQAVVTQESALTTSPGETVTLTCRSSTGAVTTSNYANWVQEKPDHLFTGLIGGTNNRAPGVPARFSGSLIGDKAALTITGAQTEDEAIYFCALWYSNHWVFGGGTKLTVLG
notes: DVD-Ig, outer AB071 / inner AB073; HC linker long, LC linker long; also called DVD522H; DVD522L
B3: DVD450 (bispecific antibody, IgG1)
VH: EVQLVESGGGLVQPGGSLRLSCAASGFTISDYWIHWVRQAPGKGLEWVAGITPAGGYTYYADSVKGRFTISADTSKNTAYLQMNSLRAEDTAVYYCARFVFFLPYAMDYWGQGTLVTVSSASTKGPSVFPLAPQVQLVQSGAEVKKPGASVKISCKASGYSFTAYYIHWVKQAPGQGLEWIGYISSYNGATNYNQKFKGRVTFTTDTSTSTAYMELRSLRSDDTAVYYCARDYDYDVGMDYWGQGTLVTVSS
VL: DIQMTQSPSSLSASVGDRVTITCRASQDVSTAVAWYQQKPGKAPKLLIYSASFLYSGVPSRFSGSGSGTDFTLTISSLQPEDFATYYCQQSYTTPPTFGQGTKVEIKRTVAAPSVFIFPPDIVMTQSPDSLAVSLGERATISCRASESVDNYGISFMKWFQQKPGQPPKLLIYAASNQGSGVPDRFSGSGSGTDFTLTISSLQAEDVAVYYCQQSKEVPWTFGGGTKVEIKR
notes: HC linker long, LC linker long; also called DVD450H; DVD450L
B4: DVD515 (bispecific antibody, IgG1)
VH: EVQLQQSGPELEKPGASVKISCKASGYSFTGYNMNWVKQSNGKSLEWIGNIDPYFGGTNYNQKFKGKATLTVDKSSSTAYMQLKSLTSEDSAVYYCARNYDYDGGCFDYWGQGTTLTVSSASTKGPEVQLVESGGGLVQPGGSLRLSCAASGFTINASWIHWVRQAPGKGLEWVGAIYPYSGYTNYADSVKGRFTISADTSKNTAYLQMNSLRAEDTAVYYCARWGHSTSPWAMDYWGQGTLVTVSS
VL: QAVVTQESALTTSPGETVTLTCRSSTGAVTTSNYANWVQEKPDHLFTGLIGGTNNRAPGVPARFSGSLIGDKAALTITGAQTEDEAIYFCALWYSNHWVFGGGTKLTVLGQPKAAPDIQMTQSPSSLSASVGDRVTITCRASQVIRRSLAWYQQKPGKAPKLLIYAASNLASGVPSRFSGSGSGTDFTLTISSLQPEDFATYYCQQSNTSPLTFGQGTKVEIKR
notes: DVD-Ig, outer AB073 / inner AB071; HC linker short, LC linker short; also called DVD515H; DVD515L
B5: DVD444 (bispecific antibody, IgG1)
VH: EVQLVESGGGLVQPGGSLRLSCAASGFTISDYWIHWVRQAPGKGLEWVAGITPAGGYTYYADSVKGRFTISADTSKNTAYLQMNSLRAEDTAVYYCARFVFFLPYAMDYWGQGTLVTVSSASTKGPQVQLVQSGAEVKKPGASVKISCKASGYSFTAYYIHWVKQAPGQGLEWIGYISSYNGATNYNQKFKGRVTFTTDTSTSTAYMELRSLRSDDTAVYYCARDYDYDVGMDYWGQGTLVTVSS
VL: DIQMTQSPSSLSASVGDRVTITCRASQDVSTAVAWYQQKPGKAPKLLIYSASFLYSGVPSRFSGSGSGTDFTLTISSLQPEDFATYYCQQSYTTPPTFGQGTKVEIKRTVAAPDIVMTQSPDSLAVSLGERATISCRASESVDNYGISFMKWFQQKPGQPPKLLIYAASNQGSGVPDRFSGSGSGTDFTLTISSLQAEDVAVYYCQQSKEVPWTFGGGTKVEIKR
notes: HC linker short, LC linker short; also called DVD444H; DVD444L
B6: DVD456 (bispecific antibody, IgG1)
VH: B3 VH
VL: B5 VL
notes: HC linker long, LC linker short; also called DVD456H; DVD456L
B7: DVD462 (bispecific antibody, IgG1)
VH: B5 VH
VL: B3 VL
notes: HC linker short, LC linker long; also called DVD462H; DVD462L
B8: DVD449 (bispecific antibody, IgG1)
VH: QVQLVQSGAEVKKPGASVKISCKASGYSFTAYYIHWVKQAPGQGLEWIGYISSYNGATNYNQKFKGRVTFTTDTSTSTAYMELRSLRSDDTAVYYCARDYDYDVGMDYWGQGTLVTVSSASTKGPSVFPLAPEVQLVESGGGLVQPGGSLRLSCAASGFTISDYWIHWVRQAPGKGLEWVAGITPAGGYTYYADSVKGRFTISADTSKNTAYLQMNSLRAEDTAVYYCARFVFFLPYAMDYWGQGTLVTVSS
VL: DIVMTQSPDSLAVSLGERATISCRASESVDNYGISFMKWFQQKPGQPPKLLIYAASNQGSGVPDRFSGSGSGTDFTLTISSLQAEDVAVYYCQQSKEVPWTFGGGTKVEIKRTVAAPSVFIFPPDIQMTQSPSSLSASVGDRVTITCRASQDVSTAVAWYQQKPGKAPKLLIYSASFLYSGVPSRFSGSGSGTDFTLTISSLQPEDFATYYCQQSYTTPPTFGQGTKVEIKR
notes: HC linker long, LC linker long; also called DVD449H; DVD449L
B9: DVD455 (bispecific antibody, IgG1)
VH: B8 VH
VL: DIVMTQSPDSLAVSLGERATISCRASESVDNYGISFMKWFQQKPGQPPKLLIYAASNQGSGVPDRFSGSGSGTDFTLTISSLQAEDVAVYYCQQSKEVPWTFGGGTKVEIKRTVAAPDIQMTQSPSSLSASVGDRVTITCRASQDVSTAVAWYQQKPGKAPKLLIYSASFLYSGVPSRFSGSGSGTDFTLTISSLQPEDFATYYCQQSYTTPPTFGQGTKVEIKR
notes: HC linker long, LC linker short; also called DVD455H; DVD455L
B10: DVD461 (bispecific antibody, IgG1)
VH: QVQLVQSGAEVKKPGASVKISCKASGYSFTAYYIHWVKQAPGQGLEWIGYISSYNGATNYNQKFKGRVTFTTDTSTSTAYMELRSLRSDDTAVYYCARDYDYDVGMDYWGQGTLVTVSSASTKGPEVQLVESGGGLVQPGGSLRLSCAASGFTISDYWIHWVRQAPGKGLEWVAGITPAGGYTYYADSVKGRFTISADTSKNTAYLQMNSLRAEDTAVYYCARFVFFLPYAMDYWGQGTLVTVSS
VL: B8 VL
notes: HC linker short, LC linker long; also called DVD461H; DVD461L
B11: DVD524 (bispecific antibody, IgG1)
VH: EVQLVESGGGLVQPGGSLRLSCAASGYTFTNYGMNWVRQAPGKGLEWVGWINTYTGEPTYAADFKRRFTFSLDTSKSTAYLQMNSLRAEDTAVYYCAKYPHYYGSSHWYFDVWGQGTLVTVSSASTKGPSVFPLAPEVQLQQSGPELEKPGASVKISCKASGYSFTGYNMNWVKQSNGKSLEWIGNIDPYFGGTNYNQKFKGKATLTVDKSSSTAYMQLKSLTSEDSAVYYCARNYDYDGGCFDYWGQGTTLTVSS
VL: DIQMTQSPSSLSASVGDRVTITCSASQDISNYLNWYQQKPGKAPKVLIYFTSSLHSGVPSRFSGSGSGTDFTLTISSLQPEDFATYYCQQYSTVPWTFGQGTKVEIKRTVAAPQAVVTQESALTTSPGETVTLTCRSSTGAVTTSNYANWVQEKPDHLFTGLIGGTNNRAPGVPARFSGSLIGDKAALTITGAQTEDEAIYFCALWYSNHWVFGGGTKLTVLG
notes: HC linker long, LC linker short; also called DVD524H; DVD524L
B12: DVD516 (bispecific antibody, IgG1)
VH: EVQLVESGGGLVQPGGSLRLSCAASGFTINASWIHWVRQAPGKGLEWVGAIYPYSGYTNYADSVKGRFTISADTSKNTAYLQMNSLRAEDTAVYYCARWGHSTSPWAMDYWGQGTLVTVSSASTKGPEVQLQQSGPELEKPGASVKISCKASGYSFTGYNMNWVKQSNGKSLEWIGNIDPYFGGTNYNQKFKGKATLTVDKSSSTAYMQLKSLTSEDSAVYYCARNYDYDGGCFDYWGQGTTLTVSS
VL: DIQMTQSPSSLSASVGDRVTITCRASQVIRRSLAWYQQKPGKAPKLLIYAASNLASGVPSRFSGSGSGTDFTLTISSLQPEDFATYYCQQSNTSPLTFGQGTKVEIKRTVAAPQAVVTQESALTTSPGETVTLTCRSSTGAVTTSNYANWVQEKPDHLFTGLIGGTNNRAPGVPARFSGSLIGDKAALTITGAQTEDEAIYFCALWYSNHWVFGGGTKLTVLG
notes: DVD-Ig, outer AB071 / inner AB073; HC linker short, LC linker short; also called DVD516H; DVD516L

The binders below were run against VEGF (VEGF 1-165 aa, R&D Systems 293-VE-010) (UniProt P15692 27-191) (assay: Direct bind ELISA, VEGF coated on plate;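 note: ELISA screening of antibodies for binding to the plate-coated target antigen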).
VEGF (VEGF 1-165 aa, R&D Systems 293-VE-010), sequence (P15692 other isoform, or with tags, fused parts or gaps limits assumed): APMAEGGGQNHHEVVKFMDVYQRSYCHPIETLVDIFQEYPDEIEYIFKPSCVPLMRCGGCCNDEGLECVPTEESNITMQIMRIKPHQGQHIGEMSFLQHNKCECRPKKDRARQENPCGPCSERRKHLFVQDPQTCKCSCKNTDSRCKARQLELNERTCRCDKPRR

EC50 [nM] | Binder
655 | B1
23.5 | B2
12.1 | B3
3020 | B4
2.44 | B5
1.63 | B6
8 | B7
15.6 | B8
26.7 | B9
10.4 | B10
0.3 | B11
24.6 | B12

— patent publication US20100260668A1 (published 2010)
